Experimental data taken from patent publication US20260217779.
Where a chain is given by its changes, count along the chain named.

Tests used:
[1] = target: T1, hCXCL11.0030-G1T4k.one//VHn-G1T4h.one.H435R
T1 chain 1: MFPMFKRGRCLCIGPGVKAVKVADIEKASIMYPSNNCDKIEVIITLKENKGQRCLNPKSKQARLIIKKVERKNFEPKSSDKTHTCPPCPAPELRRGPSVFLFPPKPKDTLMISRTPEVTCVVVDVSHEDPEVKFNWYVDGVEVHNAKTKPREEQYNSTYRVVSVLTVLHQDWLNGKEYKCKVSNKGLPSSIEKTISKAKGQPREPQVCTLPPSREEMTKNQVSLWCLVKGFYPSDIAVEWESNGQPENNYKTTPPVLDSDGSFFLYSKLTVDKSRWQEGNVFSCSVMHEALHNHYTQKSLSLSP
T1 chain 2: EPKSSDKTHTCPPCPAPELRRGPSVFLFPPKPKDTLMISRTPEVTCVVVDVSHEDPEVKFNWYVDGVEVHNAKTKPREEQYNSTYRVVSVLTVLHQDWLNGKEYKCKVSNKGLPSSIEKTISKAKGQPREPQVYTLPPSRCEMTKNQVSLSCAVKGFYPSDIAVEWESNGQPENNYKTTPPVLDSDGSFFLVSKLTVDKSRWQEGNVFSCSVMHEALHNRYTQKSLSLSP

[2] = target: T2, hCXCL11-G1T4k.one//VHn-G1T4h.one.H435R
T2 chain 1: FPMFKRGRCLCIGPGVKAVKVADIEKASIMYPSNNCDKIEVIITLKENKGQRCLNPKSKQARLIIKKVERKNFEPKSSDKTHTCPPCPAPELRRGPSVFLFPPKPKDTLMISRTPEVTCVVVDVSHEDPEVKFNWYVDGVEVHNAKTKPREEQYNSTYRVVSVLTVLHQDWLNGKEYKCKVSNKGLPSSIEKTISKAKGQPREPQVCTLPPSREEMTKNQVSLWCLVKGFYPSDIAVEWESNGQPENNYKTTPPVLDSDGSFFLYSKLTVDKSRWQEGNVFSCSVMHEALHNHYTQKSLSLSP
T2 chain 2: T1 chain 2

[3] = target: T3, hITIP0039-G1T4k.one//VHn-G1T4h.one.H435R
T3 chain 1: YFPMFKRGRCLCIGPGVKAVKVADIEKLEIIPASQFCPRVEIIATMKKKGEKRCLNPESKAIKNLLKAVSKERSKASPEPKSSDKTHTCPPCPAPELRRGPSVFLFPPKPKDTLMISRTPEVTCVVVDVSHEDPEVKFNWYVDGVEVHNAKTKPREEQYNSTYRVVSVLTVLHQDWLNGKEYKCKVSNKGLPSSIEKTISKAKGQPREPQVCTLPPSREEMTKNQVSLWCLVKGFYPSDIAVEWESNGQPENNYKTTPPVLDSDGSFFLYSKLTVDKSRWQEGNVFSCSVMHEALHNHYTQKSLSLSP
T3 chain 2: T1 chain 2

[4] = target: T4, hCXCL11.0036-G1T4k.one//VHn-G1T4h.one.H435R
T4 chain 1: T1 chain 1 with M1T
T4 chain 2: T1 chain 2

[5] = target: T5, hCXCL11.0039-G1T4k.one//VHn-G1T4h.one.H435R
T5 chain 1: T1 chain 1 with M1Y
T5 chain 2: T1 chain 2

[6] = target: T6, hCXCL11.0035-G1T4k.one//VHn-G1T4h.one.H435R
T6 chain 1: T1 chain 1 with M1S
T6 chain 2: T1 chain 2

[7] = target: T7, hCXCL11.0025-G1T4k.one//VHn-G1T4h.one.H435R
T7 chain 1: T2 chain 1
T7 chain 2: T1 chain 2

[8] = target: T8, hITIP0035-G1T4k.one//VHn-G1T4h.one.H435R
T8 chain 1: T3 chain 1 with Y1S
T8 chain 2: T1 chain 2

[9] = target: T9, hITIP0023-G1T4k.one//VHn-G1T4h.one.H435R
T9 chain 1: T3 chain 1 with Y1E
T9 chain 2: T1 chain 2

B1: human dipeptidyl peptidase IV (human DPPIV, hDPPIV) (Biolegend, 764102) (protein)
chain: NKGTDDATADSRKTYTLTDYLKNTYRLKLYSLRWISDHEYLYKQENNILVFNAEYGNSSVFLENSTFDEFGHSINDYSISPDGQFILLEYNYVKQWRHSYTASYDIYDLNKRQLITEERIPNNTQWVTWSPVGHKLAYVWNNDIYVKIEPNLPSYRITWTGKEDIIYNGITDWVYEEEVFSAYSALWWSPNGTFLAYAQFNDTEVPLIEYSFYSDESLQYPKTVRVPYPKAGAVNPTVKFFVVNTDSLSSVTNATSIQITAPASMLIGDHYLCDVTWATQERISLQWLRRIQNYSVMDICDYDESSGRWNCLVARQHIEMSTTGWVGRFRPSEPHFTLDGNSFYKIISNEEGYRHICYFQIDKKDCTFITKGTWEVIGIEALTSDYLYYISNEYKGMPGGRNLYKIQLSDYTKVTCLSCELNPERCQYYSVSFSKEAKYYQLRCSGPGLPLYTLHSSVNDKGLRVLEDNSALDKMLQNVQMPSKKLDFIILNETKFWYQMILPPHFDKSKKYPLLLDVYAGPCSQKADTVFRLNWATYLASTENIIVASFDGRGSGYQGDKIMHAINRRLGTFEVEDQIEAARQFSKMGFVDNKRIAIWGWSYGGYVTSMVLGSGSGVFKCGIAVAPVSRWEYYDSVYTERYMGLPTPEDNLDHYRNSTVMSRAENFKQVEYLLIHGTADDNVHFQQSAQISKALVDVGVDFQAMWYTDEDHGIASSTAHQHIYTHMSHFIKQCFSLP
cleavage by hDPPIV (LC/MS mass) [1]: showed no mass change suggestive of peptide bond cleavage by hDPPIV treatment
cleavage by hDPPIV (LC/MS mass) [2]: DPPIV treatment reduced each of the masses
cleavage by hDPPIV (LC/MS mass) [3]: showed no mass change suggestive of peptide bond cleavage by hDPPIV treatment
cleavage by hDPPIV (LC/MS mass) [4]: showed no mass change suggestive of peptide bond cleavage by hDPPIV treatment
cleavage by hDPPIV (LC/MS mass) [5]: showed no mass change suggestive of peptide bond cleavage by hDPPIV treatment
cleavage by hDPPIV (LC/MS mass) [6]: showed no mass change suggestive of peptide bond cleavage by hDPPIV treatment
cleavage by hDPPIV (LC/MS mass) [7]: showed no mass change suggestive of peptide bond cleavage by hDPPIV treatment
cleavage by hDPPIV (LC/MS mass) [8]: showed no mass change suggestive of peptide bond cleavage by hDPPIV treatment
cleavage by hDPPIV (LC/MS mass) [9]: showed no mass change suggestive of peptide bond cleavage by hDPPIV treatment
